Where a chain is given by its changes, count along the chain named.
Assays:
flag-tagged Gli1S84A = biological target: T1, flag-tagged Gli1S84A (human, UniProt P08151 1-1106); assay: IP-Western, flag-tagged Gli1S84A transfected into BE3 cells
T1 construct: also called flag-Gli1S84A; not shown: flag tag from vector p3flag-CMV10
T1 sequence (looked up): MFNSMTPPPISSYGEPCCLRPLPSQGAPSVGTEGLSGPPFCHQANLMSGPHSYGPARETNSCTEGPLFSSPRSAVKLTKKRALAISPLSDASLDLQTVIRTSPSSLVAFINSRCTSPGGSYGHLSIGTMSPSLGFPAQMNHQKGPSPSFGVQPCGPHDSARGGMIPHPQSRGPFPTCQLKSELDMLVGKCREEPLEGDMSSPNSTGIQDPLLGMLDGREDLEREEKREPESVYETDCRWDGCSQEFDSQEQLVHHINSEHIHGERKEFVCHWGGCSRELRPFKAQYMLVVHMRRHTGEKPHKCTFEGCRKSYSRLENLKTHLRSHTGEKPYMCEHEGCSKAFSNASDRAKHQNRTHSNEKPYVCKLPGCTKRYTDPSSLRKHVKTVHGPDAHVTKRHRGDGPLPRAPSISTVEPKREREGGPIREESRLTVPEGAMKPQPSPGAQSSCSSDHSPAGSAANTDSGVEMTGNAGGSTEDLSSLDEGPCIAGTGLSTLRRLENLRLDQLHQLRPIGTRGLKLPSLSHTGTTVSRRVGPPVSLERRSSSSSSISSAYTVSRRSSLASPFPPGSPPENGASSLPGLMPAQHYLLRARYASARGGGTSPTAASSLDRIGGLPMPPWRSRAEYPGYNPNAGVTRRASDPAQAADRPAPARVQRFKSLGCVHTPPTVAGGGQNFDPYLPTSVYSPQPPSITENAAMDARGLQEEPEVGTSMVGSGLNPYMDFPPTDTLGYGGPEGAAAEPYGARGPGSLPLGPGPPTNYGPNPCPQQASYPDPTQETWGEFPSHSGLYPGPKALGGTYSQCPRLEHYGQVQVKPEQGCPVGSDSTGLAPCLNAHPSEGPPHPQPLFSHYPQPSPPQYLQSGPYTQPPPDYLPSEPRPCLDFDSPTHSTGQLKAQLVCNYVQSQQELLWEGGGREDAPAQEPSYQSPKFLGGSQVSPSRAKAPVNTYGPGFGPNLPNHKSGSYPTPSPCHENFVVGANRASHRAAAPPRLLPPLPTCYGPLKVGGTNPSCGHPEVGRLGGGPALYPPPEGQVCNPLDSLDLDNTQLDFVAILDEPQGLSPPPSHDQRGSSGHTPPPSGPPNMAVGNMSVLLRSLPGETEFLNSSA
Procedure: FIGS. 13A-13K. related to FIG. 5. […] FIG. 13A. Luciferase assay of Gli reporter in the stable clones treated by TNFα alone (5 ng/mL) or TNFα plus rapamycin (100 nM). Error bars represent SD (n=3). FIG. 13B. Gli1 immunofluorescence staining in several BE3 stable clones with TNFα treatment. Scale bar=100 μm for original picture and 25 μm for inset. FIG. 13C. The regulation of p-Gli1 by TNFα alone or together with rapamycin (10, 50, and 100 nM) in the BE3 stable clone. FIG. 13D. MTT assay of the various Gli1 stable clones. All cells were counted, and then 3,000 cells were seeded in each well of a 96-well plate. Error bars represent SD (n=3). FIG. 13E. Soft-agar assay of the various Gli1 stable clones. All cells were counted, and then 1,000 cells were mixed with agarose for each well of a 24-well plate. Left, representative microscopic images. Right, quantitation of colony formation. Error bars represent SD (n=3). FIG. 13F. Invasion assay of the various Gli1 stable clones. All cells were counted, and then 1,000 cells were seeded on matrigel in transwells. Left, representative microscopic images from the bottom side of transwell membranes. Right, quantitation of invasive cells. Error bars represent SD (n=3). FIGS. 13G-13I. The assays of MTT (G), soft agar (H), and invasion (I) using the BE3 stable clones treated with TNFα.

[1] = biological target: T2, flag-tagged wild-type Gli1 (human, UniProt P08151 1-1106); assay: IP-Western, flag-tagged Gli1WT transfected into BE3 cells
T2 construct: Transiently expressed in BE3 cells without TNFα stimulation; also called flag-Gli1WT; flag-Gli1; not shown: flag tag from vector p3flag-CMV10
T2 sequence (looked up): T1 sequence (looked up) with A84S

binding result (flag-tagged Gli1S84A): binds | binding result [1]: binds
B1: SuFu (other, human, UniProt Q9UMX1 1-484, looked up)
chain: MAELRPSGAPGPTAPPAPGPTAPPAFASLFPPGLHAIYGECRRLYPDQPNPLQVTAIVKYWLGGPDPLDYVSMYRNVGSPSANIPEHWHYISFGLSDLYGDNRVHEFTGTDGPSGFGFELTFRLKRETGESAPPTWPAELMQGLARYVFQSENTFCSGDHVSWHSPLDNSESRIQHMLLTEDPQMQPVQTPFGVVTFLQIVGVCTEELHSAQQWNGQGILELLRTVPIAGGPWLITDMRRGETIFEIDPHLQERVDKGIETDGSNLSGVSAKCAWDDLSRPPEDDEDSRSICIGTQPRRLSGKDTEQIRETLRRGLEINSKPVLPPINPQRQNGLAHDRAPSRKDSLESDSSTAIIPHELIRTRQLESVHLKFNQESGALIPLCLRGRLLHGRHFTYKSITGDMAITFVSTGVEGAFATEEHPYAAHGPWLQILLTEEFVEKMLEDLEDLTSPEEFKLPKEYSWPEKKLKVSILPDVVFDSPLH
notes: also called suppressor of fused
